This test concerns the target recombinant human FcRn (human) (UniProt P55899). The test can be described thus: SPR, pH 5.8 (comparison value, data not shown). (SPR reads the build-up and loss of mass on a sensor chip optically.)

recombinant human FcRn (human), sequence (P55899 24-297): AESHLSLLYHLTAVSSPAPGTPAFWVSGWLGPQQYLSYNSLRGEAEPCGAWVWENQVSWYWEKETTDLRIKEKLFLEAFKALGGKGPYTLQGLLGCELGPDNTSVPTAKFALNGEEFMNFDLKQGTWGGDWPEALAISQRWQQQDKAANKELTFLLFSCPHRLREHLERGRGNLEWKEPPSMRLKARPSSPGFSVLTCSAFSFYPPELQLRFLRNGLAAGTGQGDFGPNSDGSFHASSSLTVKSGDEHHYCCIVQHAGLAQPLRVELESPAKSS

As usually defined, the Kd is the equilibrium constant for the complex coming apart. As for “wild type HSA (from UniProt P02768 25-607)”, the Kd lay in the range of 1000 to 2000 nM.

(Values after patent US20230220048A1.)
